In PMC5454011:

Columns and labels:
[1] = molecular target: MrsD-protein A fusion protein (shared helix method) (not stated | Staphylococcus aureus); assay: crystal structure; vapour diffusion; crystals of a single fusion protein
[2] = molecular target: YgjG-protein A fusion protein (shared helix method) (E. coli | Staphylococcus aureus); assay: crystal structure; vapour diffusion; complex of YgjG-protein A with ZpA963-calmodulin; 5 mM CaCl2 in all buffers
[3] = molecular target: YgjG-protein A fusion protein (shared helix method) (E. coli | Staphylococcus aureus); assay: crystal structure; vapour diffusion; complex of YgjG-protein A with ZpA963-PKA_C

Row | stoichiometry N [1] | stoichiometry N [2] | stoichiometry N [3] | Substance
1 | 12 | – | – | MrsD-protein A fusion protein (shared helix method)
2 | – | 4 | 4 | YgjG-protein A fusion protein (shared helix method)
